Experimental data as given in PMC2532728 (Nucleic Acids Research, 2008).

Biological target: the molecule itself
Assay: SEC

B1: recombinant ZmWHY1 (full-length mature ZmWHY1, lacking the transit peptide) (natural protein)
chain: ASSRKAAAVPACPVASPRHSDYFDPRAPPPPRGDGGYGRPPNGAQDGRVFTSYSIYKGKAALSFDPRPPLFVPLDSGAYKVAKEGFVLLQFAPAVATRQYDWTRKQVFSLSVWEIGTLLTLGPTDSCEFFHDPFKGRSEEGKVRKVLKIEPTPDGNGRFFNLSVQNRLINVDESIYIPITKGEFAVIVSTFNYIIPHLMGWSTFVSSIKPEESRPYSRPQSTSEYEWRR
  stoichiometry N: 4
